Laboratory results published in PMC7145534, “Are the intrinsically disordered linkers involved in SSB binding to accessory proteins?” (Nucleic Acids Research, 2019).
Entries after “also recorded” stand apart in the source; their conditions may differ.

Key:
PriA = conditions: previous study; cited from earlier work
Description: All binding reactions were performed under identical solution conditions, although additional experiments were performed at a lower [NaCl] for PriC as indicated, ...

DNA Pol III (χ) = conditions: cited from earlier work
Description: When DNA is bound to the DBD, the acidic tip no longer interacts with the DBD and thus is more available to interact with a SIP. This is supported by the observation that ΔH = −6.0 ± 0.1 kcal/mol for RecO binding to the SSBΔ120-166–(dT)70 complex, which should not contain contributions from the acidic tip-DBD intramolecular interactions.

[1] = molecular target: Escherichia coli PriC (E. coli) (UniProt P23862); test: AUC; sedimentation velocity, 42 000 rpm, 25°C; PriC at 2 μM, without and with 30-fold excess P15; buffer BTP pH 8.0, same conditions as the ITC of PriC
E. coli RecO = test: ITC of SSB tetramers (apo) binding to RecO; design: species or system Escherichia coli; conditions: apo, 25°C
Description: The concentrations were determined thereafter.

(dT)70 = test: ITC of SSB tetramers with (dT)70; assay type: binding; conditions: BTP pH 7.0, 200 mM NaCl
Description: Isothermal titration calorimetry (ITC) experiments were performed using a VP-ITC titration microcalorimeter (Malvern Panalytical, Malvern, UK) ([68]). All proteins and oligonucleotides were dialyzed extensively against the indicated buffer and cleared by centrifugation at 14 000 rpm for 15 min at 4°C. The concentrations were determined thereafter. For experiments with the SSB-Ct peptides and SIPs, 40–50 μM peptides were titrated into 1–2 μM SIPs in Buffer BTP at pH 8.0 and 50 mM NaCl. For experiments with the full-length SSB and its deletion mutants and SIPs, SSB tetramer (8–10 μM) was titrated into SIP (1 μM) in Buffer BTP at pH 7.0 and 200 mM NaCl. The heats of dilution were obtained by blank titrations in which the titrant species is titrated into the buffer, and corrections for heats of dilution were applied.
(dT)70 and wtSSB. (a) SSB-A (10 µM), a homo-tetrameric SSB variant containing an
additional six amino acids, TGASGT, at the C-terminus of each subunit, was titrated into
RecO (1 µM) in buffer BTP (pH 7.0, 200 mM NaCl) at 15° C and (b) 25° C.
(5.9 µM) was titrated into c (1 µM) in buffer T (10 mM Tris-HCl, pH 8.1, 200 mM NaCl,
0.1 mM EDTA) at 25° C. […] (d) dT70 (60 µM) was
(e) (dT)70 (15 µM) was titrated into SSB-A (1 µM) in buffer T at 25° C.
(f) (dT)70 (15 µM) is titrated into

RecO = conditions: for sedimentation coefficient, SSB alone: 0.35 μM tetramer, BTP pH 7.0, 200 mM NaCl, 25°C, no RecO
Description: Sedimentation velocity experiments were performed with an Optima XL-A analytical ultracentrifuge and An50Ti rotor (Beckman Coulter, Fullerton, CA, USA) at 42 000 rpm (25°C) as described ([50]). The concentrations used were 1–2 μM SIPs, 0.3–0.5 μM SSB tetramers, while monitoring absorbance at 230 or 280 nm. The experiments with SSB-Ct peptides were performed in Buffer BTP at pH 8.0 and 50 mM NaCl. The experiment with SSB proteins and the deletion constructs were performed in Buffer BTP at pH 7.0 and 200 mm NaCl. The sample (380 μl) and buffer (394 μl) were loaded into each sector of an Epon charcoal-filled two-sector centerpiece. Absorbance data were collected by scanning the sample cells at intervals of 0.003 cm. Data were analyzed using SEDFIT, to obtain c(s) distributions ([70]). The c(s) distribution function defines the populations of species with different sedimentation rates and represents a variant of the distribution of Lamm equation solutions ([70]). The density and viscosity of the experimental buffers at 25°C were determined using [sequence] […] The partial specific volume of (dT)70 used was 0.56 ml/g. In the experiments involving more than one species, the partial specific volumes of complexes were calculated assuming additivity using Equation (4), where = number of moles of species ‘i’, = molecular weight of species ‘i’, and = partial specific volume of each species i.(4)
RecO binding to SSB tetramers with portions of the IDL deleted. […] (C) The results of sedimentation velocity experiments, plotted as the c(s) distribution ([70]) for each SSB construct (0.35 μM tetramer) in the absence (black lines) and presence (red lines) of 2.5 molar excess of RecO (3.5 μM) per C-terminus.

[2] = molecular target: T1, Escherichia coli RecO protein (E. coli, UniProt P0A7H3 1-242); test: ITC; P15 and RecO; buffer BTP pH 8, 200 mM NaCl, 25°C; N fixed to 1; conditions: both partners purified
T1 construct: E. coli RecO, recombination mediator of the RecF pathway; source: E. coli BL21(DE3)pLysS, plasmid pMCSG7, purified (Ni-NTA, HiTrap Heparin HP) after His-tag cleavage with TEV protease
T1 sequence (looked up): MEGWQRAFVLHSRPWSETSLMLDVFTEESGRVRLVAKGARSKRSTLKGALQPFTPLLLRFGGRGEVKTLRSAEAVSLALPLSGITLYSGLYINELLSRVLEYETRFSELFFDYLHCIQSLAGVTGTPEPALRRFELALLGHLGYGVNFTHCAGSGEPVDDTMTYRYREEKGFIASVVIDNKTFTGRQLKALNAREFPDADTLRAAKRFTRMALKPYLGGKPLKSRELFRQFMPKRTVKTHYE

[3] = molecular target: T1, Escherichia coli RecO protein; test: ITC; P15 and RecO; buffer BTP pH 7.0, 200 mM NaCl, 15°C; N fixed to 1; conditions: both partners purified
[4] = molecular target: T1, Escherichia coli RecO protein; test: ITC; P15 and RecO; buffer BTP pH 7.0, 200 mM NaCl, 25°C; N fixed to 1; conditions: both partners purified
[5] = molecular target: T1, Escherichia coli RecO protein; test: ITC; P15 and RecO; buffer BTP pH 7.0, 200 mM NaCl, 37°C; N fixed to 1; conditions: both partners purified
Escherichia coli PriC [6] = molecular target: T2, Escherichia coli PriC (E. coli, UniProt P23862 1-175); test: ITC; SSB-Ct peptide titrated into PriC; buffer BTP pH 8.0, 10 mM NaCl, 25°C; N fixed to 1 for the values of Table 1; conditions: both partners purified
T2 construct: E. coli PriC, replication restart protein; source: E. coli BL21(DE3), plasmid pET11a-EcoPriC (pAM001), purified (Macro-Prep High S, HiPrep Sephacryl S-200 HR)
T2 sequence (looked up): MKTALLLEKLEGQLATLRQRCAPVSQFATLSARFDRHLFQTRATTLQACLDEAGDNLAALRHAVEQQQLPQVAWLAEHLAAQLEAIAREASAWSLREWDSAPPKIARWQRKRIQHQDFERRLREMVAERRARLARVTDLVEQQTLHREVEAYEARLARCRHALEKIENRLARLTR

Escherichia coli PriC [7] = molecular target: T2, Escherichia coli PriC; test: as above; conditions: both partners purified; remark: listed apart in the source
[8] = molecular target: T1, Escherichia coli RecO protein; test: ITC; SSB-Ct peptide (40–50 μM) titrated into SIP (1–2 μM); buffer BTP (20 mM Bis-Tris Propane, 25% glycerol, 1 mM TCEP) pH 8.0, 50 mM NaCl, 25°C; observed association constants; N fixed to 1 for the values of Table 1; conditions: both partners purified
Escherichia coli PriA [9] = molecular target: T3, Escherichia coli PriA (E. coli, UniProt P17888 1-732); test: as above; conditions: both partners purified
T3 construct: E. coli PriA, replication restart protein
T3 sequence (P17888 whole entry): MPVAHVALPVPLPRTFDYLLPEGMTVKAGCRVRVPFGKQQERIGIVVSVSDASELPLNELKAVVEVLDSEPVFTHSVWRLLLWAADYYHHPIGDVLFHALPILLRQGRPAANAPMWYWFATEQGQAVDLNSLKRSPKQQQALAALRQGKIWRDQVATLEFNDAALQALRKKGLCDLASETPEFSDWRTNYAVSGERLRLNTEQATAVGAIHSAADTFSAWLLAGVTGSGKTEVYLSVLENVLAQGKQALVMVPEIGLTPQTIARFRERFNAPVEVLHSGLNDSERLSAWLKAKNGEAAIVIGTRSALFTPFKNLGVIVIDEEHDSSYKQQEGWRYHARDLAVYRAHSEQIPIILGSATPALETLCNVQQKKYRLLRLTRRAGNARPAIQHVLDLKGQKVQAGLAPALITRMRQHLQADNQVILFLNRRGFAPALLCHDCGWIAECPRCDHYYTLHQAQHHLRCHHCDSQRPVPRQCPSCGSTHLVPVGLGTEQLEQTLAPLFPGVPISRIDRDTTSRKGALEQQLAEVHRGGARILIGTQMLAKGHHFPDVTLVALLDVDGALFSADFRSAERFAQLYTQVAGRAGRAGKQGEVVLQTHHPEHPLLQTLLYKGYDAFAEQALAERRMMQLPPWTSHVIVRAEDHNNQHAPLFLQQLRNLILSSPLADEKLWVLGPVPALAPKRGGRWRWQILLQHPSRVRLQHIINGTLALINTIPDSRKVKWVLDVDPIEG

[10] = molecular target: T4, chi (χ) subunit of DNA polymerase III (E. coli, UniProt P28905 1-147); test: as above; conditions: both partners purified
T4 construct: E. coli DNA polymerase III chi subunit; also called χ protein; DNA Pol III (χ)
T4 sequence (P28905 whole entry): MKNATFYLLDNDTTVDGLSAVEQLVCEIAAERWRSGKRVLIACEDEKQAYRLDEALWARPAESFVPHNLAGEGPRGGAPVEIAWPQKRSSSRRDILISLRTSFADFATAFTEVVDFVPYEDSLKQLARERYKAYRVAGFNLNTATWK

[11] = molecular target: T1, Escherichia coli RecO protein; test: as above; conditions: both partners purified; remark: listed apart in the source
Escherichia coli PriA [12] = molecular target: T3, Escherichia coli PriA; test: as above; conditions: both partners purified; remark: listed apart in the source
[13] = molecular target: T4, chi (χ) subunit of DNA polymerase III; test: as above; conditions: both partners purified; remark: listed apart in the source
[14] = molecular target: Escherichia coli RecO protein (E. coli) (UniProt P0A7H3); test: ITC; apo SSBΔ120-166 tetramer and RecO; 10°C; N fixed to 4 in Table 3
[15] = molecular target: Escherichia coli RecO protein (E. coli) (UniProt P0A7H3); test: ITC; SSB tetramer–(dT)70 complex (9–10 μM) titrated into RecO (1 μM); buffer BTP pH 7.0, 200 mM NaCl, 25°C; N fixed to 4, K and ΔH per C-terminus
[16] = molecular target: Escherichia coli RecO protein (E. coli) (UniProt P0A7H3); test: ITC; SSB tetramer (10 µM) titrated into RecO (1 µM); buffer BTP pH 7.0, 200 mM NaCl, 10°C; N floated, N = RecO per SSB tetramer; ΔH per C-terminus
[17] = molecular target: Escherichia coli RecO protein (E. coli) (UniProt P0A7H3); test: ITC; apo SSB tetramer (9–10 μM) titrated into RecO (1 μM); buffer BTP pH 7.0, 200 mM NaCl, 25°C; N fixed to 4 RecO per tetramer, K and ΔH per C-terminus
[18] = molecular target: the molecule itself; test: AUC; sedimentation velocity, 42 000 rpm, 25°C; SSB construct 0.35 μM tetramer alone and with 3.5 μM RecO (2.5 molar excess per C-terminus); buffer BTP pH 7.0, 200 mM NaCl
[19] = molecular target: T1, Escherichia coli RecO protein; test: ITC; SSB tetramer–(dT)70 complex (9–10 μM) titrated into RecO (1 μM); buffer BTP pH 7.0, 200 mM NaCl, 25°C; N fixed to 4, K and ΔH per C-terminus; conditions: both partners purified
[20] = molecular target: T1, Escherichia coli RecO protein; test: ITC; apo SSB tetramer (9–10 μM) titrated into RecO (1 μM); buffer BTP pH 7.0, 200 mM NaCl, 25°C; N fixed to 4 RecO per tetramer, K and ΔH per C-terminus; conditions: both partners purified

MDFDDDIPF [P9]
binding to PriA (PriA): binds with specificity
affinity and ΔH for χ binding versus (dT)70-bound SSB (DNA Pol III (χ)): very similar
binding to χ (DNA Pol III (χ); previous study): binds with specificity

Escherichia coli PriC (from UniProt P23862 1-175) (natural protein)
percent of the monomeric species [1]: 48.1%

wtSSB: E. coli single strand DNA binding protein, homo-tetramer, wild type
K (E. coli RecO; BTP pH 7, 200 mM NaCl): (1.5 ± 0.2) × 10^6 M^−1
binding to (dT)70 by ITC ((dT)70): binds stoichiometrically
sedimentation coefficient, SSB alone (RecO): 1.4 S
complex formation with RecO (RecO; 10-fold molar excess of RecO to SSB tetramer): RecO forms complexes with wtSSB

B1: SSB-Ct peptide P15 (C-terminal 15 amino acids of E. coli SSB) (peptide, UniProt P0AGE0 164-178, looked up)
peptide: PSNEPPMDFDDDIPF
notes: E. coli SSB, the C-terminal 15 amino acids; Holds none of the PXXP motifs; also called acidic tip peptide; source: synthetic peptide; bought: WatsonBio
dH [2]: -3.9 ± 0.1 kcal/mol
dH [3]: -2.4 ± 0.2 kcal/mol
dH [4]: -6 ± 0.2 kcal/mol
dH [5]: -7.8 ± 0.8 kcal/mol
stoichiometry N (Escherichia coli PriC [6]): 1
dH (Escherichia coli PriC [7]): -2.7 ± 0.1 kcal/mol
stoichiometry N [8]: 1
stoichiometry N (Escherichia coli PriA [9]): 1
stoichiometry N [10]: 1
dH [11]: -5.2 ± 0.1 kcal/mol
dH (Escherichia coli PriA [12]): -9.6 ± 0.3 kcal/mol
dH [13]: -9.3 ± 0.1 kcal/mol

B2: SSBΔ120-166 tetramer (natural protein, E. coli, UniProt P0AGE0 1-178, looked up)
chain: MASRGVNKVILVGNLGQDPEVRYMPNGGAVANITLATSESWRDKATGEMKEQTEWHRVVLFGKLAEVASEYLRKGSQVYIEGQLRTRKWTDQSGQDRYTTEVVVNVGGTMQMLGGRQGGGPPMDFDDDIPF
notes: E. coli SSB with residues 120-166 of the IDL deleted, acidic tip kept; All three PXXP motifs deleted; only nine residues of the IDL left; Used apo and in complex with (dT)70
K (observed association equilibrium constant) (E. coli RecO; BTP pH 7.0, 200 mM NaCl, N fixed to 4): Not detected
RecO binding detected by ITC (E. coli RecO; pH 7.0, 200 mM NaCl): undetectable; also recorded: could not be detected
sedimentation coefficient, SSB alone (RecO): 1.3 S
Ka [14]: 370000 M⁻¹
dH (per tip, ΔH/4) [14]: -8.1 kcal/mol
dH (per tip, ΔH/4) [15]: -6 kcal/mol
Ka [16]: 373000 M⁻¹
stoichiometry N [16]: 4.03
dH (per tip, ΔH/4) [17]: 0 kcal/mol
stoichiometry N [18]: 4

B3: SSBΔ151-166 tetramer (natural protein, E. coli, UniProt P0AGE0 1-178, looked up)
chain: MASRGVNKVILVGNLGQDPEVRYMPNGGAVANITLATSESWRDKATGEMKEQTEWHRVVLFGKLAEVASEYLRKGSQVYIEGQLRTRKWTDQSGQDRYTTEVVVNVGGTMQMLGGRQGGGAPAGGNIGGGQPQGGWGQPQQPQGGNQFSGGPPMDFDDDIPF
notes: E. coli SSB with residues 151-166 of the IDL deleted, acidic tip kept; Two C-terminal PXXP motifs deleted; Used apo and in complex with (dT)70
sedimentation coefficient, SSB alone (RecO): 1.4 S
dH (per tip, ΔH/4) [19]: -8.7 ± 0.1 kcal/mol
dH (per tip, ΔH/4) [20]: -7 ± 0.1 kcal/mol
stoichiometry N [18]: 4

B4: SSBΔ130-166 tetramer (natural protein, E. coli, UniProt P0AGE0 1-178, looked up)
chain: MASRGVNKVILVGNLGQDPEVRYMPNGGAVANITLATSESWRDKATGEMKEQTEWHRVVLFGKLAEVASEYLRKGSQVYIEGQLRTRKWTDQSGQDRYTTEVVVNVGGTMQMLGGRQGGGAPAGGNIGGGPPMDFDDDIPF
notes: E. coli SSB with residues 130-166 of the IDL deleted, acidic tip kept; All three PXXP motifs deleted; Used apo and in complex with (dT)70
dH (per tip, ΔH/4) [19]: -4.5 ± 0.1 kcal/mol
dH (per tip, ΔH/4) [20]: -2.3 ± 0.1 kcal/mol
stoichiometry N [18]: 4
